Measurements from patent US20100129800A1, “POLYMERS AND THEIR USE AS FLUORESCENT LABELS” (priority 2007, published 2010).
Ends that are not written are not given here. Nct = N-((2S,3R)-1,3-dihydroxybutan-2-yl)-(4a,10a-dihydro-10,11-diazabenzo[b]fluoren-10-yl)acetamide monomer; Qut = N-(1,3-dihydroxybutan-2-yl)-10H-indolo[3,2-d]quinoline-11-carboxamide monomer; Pht = N-((2S,3R)-1,3-dihydroxybutan-2-yl)-2-phenylquinoline-4-carboxamide monomer; Act = N-(1,3-dihydroxybutan-2-yl)acridine-9-carboxamide monomer; code p = not defined here; Agt = not defined here; Qgt = not defined here

Experiments:
[1] = tested on: parallel triplex (5′-T20-3′-3′-T20-5′+A20); experiment: Competitive dialysis; assay type: binding; settings: 1 μM ligand, 24 hours, room temperature
Description: Compounds that bind nucleic acids may show preference for certain sequences. This preference can be used for the detection of specific nucleic acid sequences. One of the methods used to analyse the sequence specificity of DNA-binding compounds is the competition dialysis (c.f. Ren, J. et al., “Sequence and structural selectivity of nucleic acid binding ligands”, Biochemistry, 1999, vol. 38, pp […]). In this method different nucleic acid structures are dialyzed against a common compound solution. […] The amount of compound present in each DNA sequence is measured by fluorescence.
We analysed the sequence specificity of the following polymers of the invention: Aca-p-Aca, QgpQgp(npa), Act-(p-Act)5, Act-p-Qut-p-Agt, Act-p-Qut-p-Act, Act-p-Qut-p-Nct, Qut-p-Qut-p-Qut, Act-p-Qut-p-Qut, and Act-p-Act-p-Act for DNA sequences: • duplex with an alternating CG sequence (5′-CGCGCG-T4-CGCGCG-3′); • duplex with a contiguous CG sequence (5′- CCCGGG-T4-CCCGGG-3′); • duplex with an alternating AT sequence (5′-[…]-T4-[…]); • duplex with a contiguous AT sequence (5′-[…]-T4-[…]); • a parallel triplex (5′-T20-3′-3′-T20-5′+A20); and • a G-quadruplex (thrombin-binding aptamer: 5′-[…]-3′ (SEQ ID NO 1); (c.f. Bock, L. C. et al., “Selection of single-stranded DNA molecules that bind and inhibit human thrombin”, Nature, 1992, vol. 355, pp 564-566).
Said DNA sequences have been used in order to determine: 1) the affinity of each one of the polymers for a specific tandem of nucleotides (CG, AT, GT); and 2) if the affinity for a specific tandem of nucleotides is affected by its distribution into the sequence (i.e., if the tandem is alternated or contiguous in the sequence).
The competition dialysis assay was performed placing into a beaker 200 ml of dialysate solution containing 1 μM of ligand in 2 mM sodium phosphate, 2 mM EDTA and 0.185 M NaCl pH 7.0. A volume of 0.1 ml (at 1 mg/ml) of each DNA samples was pipeted into a separate 0.1 ml dialysis unit (Mini Slide-A-lyzer 3.5K, Pierce). The dialysis units were placed in the beaker containing the dialysate solution using a floating device. The contents were allowed to equilibrate with continuous stirring for 24 hours at room temperature. At the end of the equilibration period, DNA samples were carefully removed to eppendorf tubes and were taken to a final concentration of 1% (w/v) sodium dodecyl sulfate (SDS). The concentration of polymer within each dialysis unit was then determined by fluorescence spectroscopy. The free polymer concentration was determined using an aliquot of the dialysate solution as well as with the solution coming from a blank (without DNA) dialysis unit.
The concentration of the polymer (which is determined by fluorescence spectroscopy) indicates its specificity for a specific sequence: the more higher is the concentration, more specific is for said sequence.

[2] = Fluorescence properties of the new compounds (excitation and emission wavelengths); assay type: physicochemical; settings: free compound
[3] = tested on: duplex structure of DNA; experiment: Melting experiments (DNA-duplex stabilization); assay type: physicochemical; settings: 1 M NaCl, 10 mM sodium phosphate buffer of pH=7; for Tm(° C.): 260 nm, 1° C./min; for ΔTm (° C.): versus unmodified oligonucleotide
Experimental: Appropriate oligonucleotides were dissolved in a solution containing 1 M NaCl, 10 mM sodium phosphate buffer of pH=7. UV Absorption spectra and melting experiments (absorbance vs temperature) were recorded in 1-cm path length cell by using a spectrophotometer, with a temperature controller and a programmed temperature increase rate of 1° C./min. Melting curves were recorded at 260 nm, and melting temperatures were measured at the maximum of the first derivatives of the melting curves.

[4] = Fluorescent properties of duplexes carrying fluorophores at the 3′-end; assay type: physicochemical; settings: oligonucleotide duplex carrying fluorophore at the 3′-end
Experimental: Solid supports carrying oligomers with L-threoninol and 3-aminopropan-1,2-diol backbones were introduced on a DNA synthesizer and oligonucleotides were assembled using standard protocols. After the assembly of the desired DNA sequence, supports were treated with concentrated ammonia at 55° C. for a minimum of 6 hrs yielding oligonucleotides carrying oligomers of fluorophores at the 3′-end.
Two oligonucleotide sequences were synthetized (sequence 1: 5′-[…]-3′ sequence 2: 5′-[…]-3′) carrying different fluorophores at the 3′-end. Solid supports containing dimer and trimer fluorophores (prepared in examples 28-31) and standard protocols for oligonucleotide synthesis were used in order to obtain these modified oligonucleotides (Table 2). Ammonia deprotection was performed at 55° C. for 6 hours. The resulting solutions were concentrated to dryness. Then, the residue was dissolved in water and desalted through a NAP-10 column. Fractions containing oligonucleotides were analysed by HPLC and characterized by UV and MS spectrometry.
Next, the fluorescent properties of duplexes carrying fluorophores at the 3′-end was determined and the results are shown in Table 3: […]

CC(O)C(COP(=O)(O)OC(C)C(COP(=O)(O)OC(C)C(COP(=O)(O)OC(C)C(COP(=O)(O)OC(C)C(COP(=O)(O)OC(C)C(CO)NC(=O)c1c2ccccc2nc2ccccc12)NC(=O)c1c2ccccc2nc2ccccc12)NC(=O)c1c2ccccc2nc2ccccc12)NC(=O)c1c2ccccc2nc2ccccc12)NC(=O)c1c2ccccc2nc2ccccc12)NC(=O)c1c2ccccc2nc2ccccc12 (stereo not drawn) [Example 30, O-{2-N-(Acridine-9-carbamoyl)-(1-hydroxybut-3-yl)} phosphate (3-1) O-{2-N-(acridine-9-carbamoyl)-(1-hydroxybut-3-yl)} phosphate (3-1) O-{2-N-(acridine-9-carbamoyl)-(1-hydroxybut-3-yl)} phosphate (3-1) O-{2-N-(acridine-9-carbamoyl)-(1-hydroxybut-3-yl)} phosphate (3-1) O-{2-N-(acridine-9-carbamoyl)-(1-hydroxybut-3-yl)} phosphate (3-1) O-{2-N-(acridine-9-carbamoyl)-3-hydroxybut-1-yl}]
affinity (concentration of polymer retained, by fluorescence) [1]: high affinity
Fluorescence Excitation (nm) [2]: 350 nm
Fluorescence emission (nm) [2]: 438 nm

TTCCGGAA-p-Act-p-Pht: oligonucleotide 5′-TTCCGGAA-3′ carrying dimer Act-p-Pht at the 3′-end (DNA TTCCGGAA-{code p-Act-code p-Pht}; not fully specified; cysteine pairing not given here; reading uncertain; also: DNA oligonucleotide with 3'-Act-p-Pht dimer)
Tm(° C.) [3]: 43 °C
ΔTm (° C.) [3]: +8 °C
Emission (nm) [4]: 440 nm
Excitation (nm) [4]: 336 nm

TTCCGGAA-p-Act-p-Qut-p-Nct: oligonucleotide 5′-TTCCGGAA-3′ carrying trimer Act-p-Qut-p-Nct at the 3′-end (DNA TTCCGGAA-{code p-Act-code p-Qut-code p-Nct}; not fully specified; cysteine pairing not given here; reading uncertain; also: DNA oligonucleotide with 3'-Act-p-Qut-p-Nct trimer)
Tm(° C.) [3]: 60 °C
ΔTm (° C.) [3]: +25 °C

TTCCGGAA-p-Act-p-Qut-p-Qut: oligonucleotide 5′-TTCCGGAA-3′ carrying trimer Act-p-Qut-p-Qut at the 3′-end (DNA TTCCGGAA-{code p-Act-code p-Qut-code p-Qut}; not fully specified; cysteine pairing not given here; reading uncertain; also: DNA oligonucleotide with 3'-Act-p-Qut-p-Qut trimer)
Tm(° C.) [3]: 44 °C
ΔTm (° C.) [3]: +9 °C
Emission (nm) [4]: 436 nm
Excitation (nm) [4]: 352 nm

TTCCGGAA-p-Act-p-Qut: oligonucleotide 5′-TTCCGGAA-3′ carrying dimer Act-p-Qut at the 3′-end (DNA TTCCGGAA-{code p-Act-code p-Qut}; not fully specified; cysteine pairing not given here; reading uncertain; also: DNA oligonucleotide with 3'-Act-p-Qut dimer)
Tm(° C.) [3]: 44 °C
ΔTm (° C.) [3]: +9 °C
Emission (nm) [4]: 485 nm
Excitation (nm) [4]: 351 nm

TTCCGGAA-p-Act: oligonucleotide 5′-TTCCGGAA-3′ carrying fluorophore Act at the 3′-end (DNA TTCCGGAA-{code p-Act}; not fully specified; cysteine pairing not given here; reading uncertain; also: DNA oligonucleotide with 3'-phosphate-linked Act)
Tm(° C.) [3]: 47 °C
ΔTm (° C.) [3]: +12 °C

TTCCGGAA-p-Agt: oligonucleotide 5′-TTCCGGAA-3′ carrying fluorophore Agt at the 3′-end (DNA TTCCGGAA-{code p-Agt}; not fully specified; cysteine pairing not given here; reading uncertain; also: DNA oligonucleotide with 3'-phosphate-linked Agt)
Tm(° C.) [3]: 47 °C
ΔTm (° C.) [3]: +12 °C

TTCCGGAA-p-Nct: oligonucleotide 5′-TTCCGGAA-3′ carrying fluorophore Nct at the 3′-end (DNA TTCCGGAA-{code p-Nct}; not fully specified; cysteine pairing not given here; reading uncertain; also: DNA oligonucleotide with 3'-phosphate-linked Nct)
Tm(° C.) [3]: 46 °C
ΔTm (° C.) [3]: +11 °C
Emission (nm) [4]: 442 nm
Excitation (nm) [4]: 267 nm

TTCCGGAA-p-Pht: oligonucleotide 5′-TTCCGGAA-3′ carrying fluorophore Pht at the 3′-end (DNA TTCCGGAA-{code p-Pht}; not fully specified; cysteine pairing not given here; reading uncertain; also: DNA oligonucleotide with 3'-phosphate-linked Pht)
Tm(° C.) [3]: 41 °C
ΔTm (° C.) [3]: +6 °C

TTCCGGAA-p-Qgt: oligonucleotide 5′-TTCCGGAA-3′ carrying fluorophore Qgt at the 3′-end (DNA TTCCGGAA-{code p-Qgt}; not fully specified; cysteine pairing not given here; reading uncertain; also: DNA oligonucleotide with 3'-phosphate-linked Qgt)
Tm(° C.) [3]: 50 °C
ΔTm (° C.) [3]: +15 °C
Emission (nm) [4]: 491 nm
Excitation (nm) [4]: 350 nm

TTCCGGAA-p-Qut-p-Qut: oligonucleotide 5′-TTCCGGAA-3′ carrying dimer Qut-p-Qut at the 3′-end (DNA TTCCGGAA-{code p-Qut-code p-Qut}; not fully specified; cysteine pairing not given here; reading uncertain; also: DNA oligonucleotide with 3'-Qut-p-Qut dimer)
Tm(° C.) [3]: 48 °C
ΔTm (° C.) [3]: +13 °C
Emission (nm) [4]: 490 nm
Excitation (nm) [4]: 349 nm

TTCCGGAA-p-Qut: oligonucleotide 5′-TTCCGGAA-3′ carrying fluorophore Qut at the 3′-end (DNA TTCCGGAA-{code p-Qut}; not fully specified; cysteine pairing not given here; reading uncertain; also: DNA oligonucleotide with 3'-phosphate-linked Qut)
Tm(° C.) [3]: 44 °C
ΔTm (° C.) [3]: +9 °C
Emission (nm) [4]: 492 nm
Excitation (nm) [4]: 349 nm
